Results: article doi:10.1101/2023.02.24.529952 (bioRxiv, 2023)

B1: CCL5 (ligand)
chain: SPYSSDTTPCCFAYIARPLPRAHIKEYFYTSGKCSNPAVVFVTRKNRQVCANPEKKWVREYINSLEMS
notes: recombinant human CCL5; source: bought: PeproTech
B2: CCL13 (ligand)
chain: not shown
notes: recombinant human CCL13; source: bought: PeproTech
B3: CCL11 (ligand)
chain: not shown
notes: recombinant human CCL11; source: bought: PeproTech
B4: CCL26 (ligand)
chain: TRGSDISKTCCFQYSHKPLPWTWVRSYEFTSNSCSQRAVIFTTKRGKKVCTHPRKKWVQKYISLLKTPKQL
notes: recombinant human CCL26; source: bought: PeproTech
B5: CXCL9 (ligand)
chain: TPVVRKGRCSCISTNQGTIHLQSLKDLKQFAPSPSCEKIEIIATLKNGVQTCLNPDSADVKELIKKWEKQVSQKKKQKNGKKHQKKKVLKVRKSQRSRQKKTT
notes: recombinant human CXCL9; source: bought: PeproTech
B6: IL-27 (complex)
chain 1: FPRPPGRPQLSLQELRREFTVSLHLARKLLSEVRGQAHRFAESHLPGVNLYLLPLGEQLPDVSLTFQAWRRLSDPERLCFISTTLQPFHALLGGLGTQGRWTNMERMQLWAMRLDLRDLQRHLRFQVLAAGFNLPEEEEEEEEEEEEERKGLLPGALGSALQGPAQVSWPQLLSTYRLLHSLELVLSRAVRELLLLSKAGHSVWPLGFPTLSPQP
chain 2: RKGPPAALTLPRVQCRASRYPIAVDCSWTLPPAPNSTSPVSFIATYRLGMAARGHSWPCLQQTPTSTSCTITDVQLFSMAPYVLNVTAVHPWGSSSSFVPFITEHIIKPDPPEGVRLSPLAERQLQVQWEPPGSWPFPEIFSLKYWIRYKRQGAARFHRVGPIEATSFILRAVRPRARYYVQVAAQDLTDYGELSDWSLPATATMSLGK
notes: source: bought: PeproTech
B7: CCL21 (ligand)
chain: SDGGAQDCCLKYSQRKIPAKVVRSYRKQEPSLGCSIPAILFLPRKRSQAELCADPKELWVQQLMQHLDKTPSPQKPAQGCRKDRGASKTGKKGKGSKGCKRTERSQTPKGP
notes: recombinant human CCL21; source: bought: PeproTech
B8: CXCL11 (ligand)
chain: FPMFKRGRCLCIGPGVKAVKVADIEKASIMYPSNNCDKIEVIITLKENKGQRCLNPKSKQARLIIKKVERKNF
notes: recombinant human CXCL11; source: bought: PeproTech
B9: CCL25 (ligand)
chain: QGVFEDCCLAYHYPIGWAVLRRAWTYRIQEVSGSCNLPAAIFYLPKRHRKVCGNPKSREVQRAMKLLDARNKVFAKLHHNTQTFQAGPHAVKKLSSGNSKLSSSKFSNPISSSKRNVSLLISANSGL
notes: recombinant human CCL25; source: bought: PeproTech
B10: CCL28 (ligand)
chain: SEAILPIASSCCTEVSHHISRRLLERVNMCRIQRADGDCDLAAVILHVKRRRICVSPHNHTVKQWMKVQAAKKNGKGNVCHRKKHHGKRNSNRAHQGKHETYGHKTPY
notes: recombinant human CCL28; source: bought: PeproTech
B11: CXCL13 (ligand)
chain: VLEVYYTSLRCRCVQESSVFIPRRFIDRIQILPRGNGCPRKEIIVWKKNKSIVCVDPQAEWIQRMMEVLRKRSSSTLPVPVFKRKIP
notes: recombinant human CXCL13; source: bought: PeproTech
B12: CXCL14 (ligand)
chain: SKCKCSRKGPKIRYSDVKKLEMKPKYPHCEEKMVIITTKSVSRYRGQEHCLHPKLQSTKRFIKWYNAWNEKRRVYEE
notes: recombinant human CXCL14; source: bought: PeproTech
B13: HCoV-OC43 Nucleocapsid (N) protein (2X-StrepTag tagged) (natural protein)
chain: MSFTPGKQSSSRASSGNRSGNGILKWADQSDQVRNVQTRGRRAQPKQTATSQQPSGGNVVPYYSWFSGITQFQKGKEFEFVEGQGPPIAPGVPATEAKGYWYRHNRGSFKTADGNQRQLLPRWYFYYLGTGPHAKDQYGTDIDGVYWVASNQADVNTPADIVDRDPSSDEAIPTRFPPGTVLPQGYYIEGSGRSAPNSRSTSRTSSRASSAGSRSRANSGNRTPTSGVTPDMADQIASLVLAKLGKDATKPQQVTKHTAKEVRQKILNKPRQKRSPNKQCTVQQCFGKRGPNQNFGGGEMLKLGTSDPQFPILAELAPTAGAFFFGSRLELAKVQNLSGNPDEPQKDVYELRYNGAIRFDSTLSGFETIMKVLNENLNAYQQQDGMMNMSPKPQRQRGHKNGQGENDNISVAVPKSRVQQNKSRELTAEDISLLKKMDEPYTEDTSEI
notes: also called rN; HCoV-OC43 rN; source: HEK293-FT, transfected, in crude lysate; not shown: 2X-StrepTag, C-terminal, kept

Molecular target: B13
Assay: BLI
Settings: one partner purified

Question: How did the Kd turn out when B1 was run?
Answer: The Kd was 56000 nM.

Question: What about the koff of the same binder?
Answer: The koff was 0.015 s⁻¹.

Question: And the kon?
Answer: Its kon is 2100 M⁻¹ s⁻¹.

Question: How did the Kd turn out when B2 was run?
Answer: The Kd was 1600 nM.

Question: And the koff?
Answer: Its koff is 0.025 s⁻¹.

Question: What about the kon of the same binder?
Answer: The kon was 19000 M⁻¹ s⁻¹.

Question: What does the source list for B3?
Answer: Kd: 1400 nM; koff: 0.021 s⁻¹; kon: 17000 M⁻¹ s⁻¹

Question: With B4 as the binder, how does the Kd read?
Answer: Its Kd is 620 nM.

Question: And the koff?
Answer: Its koff is 0.014 s⁻¹.

Question: And the kon?
Answer: Its kon is 20000 M⁻¹ s⁻¹.

Question: Which results are given for B5?
Answer: Kd: 29 nM; koff: 0.0022 s⁻¹; kon: 82000 M⁻¹ s⁻¹

Question: With B6 as the binder, how does the Kd read?
Answer: The Kd was 55 nM.

Question: And the koff?
Answer: Its koff is 0.0024 s⁻¹.

Question: What about the kon of the same binder?
Answer: The kon was 51000 M⁻¹ s⁻¹.

Question: For B7, which Kd is on record?
Answer: Its Kd is 290 nM.

Question: What about the koff of the same binder?
Answer: Its koff is 0.012 s⁻¹.

Question: What about the kon of the same binder?
Answer: The kon was 67000 M⁻¹ s⁻¹.

Question: What does the source list for B8?
Answer: Kd: 730 nM; koff: 0.012 s⁻¹; kon: 18000 M⁻¹ s⁻¹

Question: Which results are given for B9?
Answer: Kd: 610 nM; koff: 0.0048 s⁻¹; kon: 8300 M⁻¹ s⁻¹

Question: How did the Kd turn out when B10 was run?
Answer: Its Kd is 27 nM.

Question: And the koff?
Answer: The koff was 0.0015 s⁻¹.

Question: And the kon?
Answer: The kon was 60000 M⁻¹ s⁻¹.

Question: With B11 as the binder, how does the Kd read?
Answer: The Kd was 140 nM.

Question: What about the koff of the same binder?
Answer: The koff was 0.0046 s⁻¹.

Question: And the kon?
Answer: The kon was 44000 M⁻¹ s⁻¹.

Question: With B12 as the binder, how does the Kd read?
Answer: The Kd was 580 nM.

Question: And the koff?
Answer: The koff was 0.0063 s⁻¹.

Question: What about the kon of the same binder?
Answer: Its kon is 12000 M⁻¹ s⁻¹.

Molecular target: T1, CXCL12α (human, UniProt P48061-2 22-89)
T1 construct: source: bought: PeproTech
T1 sequence (P48061 22-89): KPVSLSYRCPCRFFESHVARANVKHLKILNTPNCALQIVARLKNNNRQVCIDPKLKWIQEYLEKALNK
Assay: BLI
Settings: one partner purified

Question: Which Kd does the source give for B13 here?
Answer: Its Kd is 0.46 nM.

Question: And the koff?
Answer: The koff was 3.7e-05 s⁻¹.

Question: And the kon?
Answer: Its kon is 62000 M⁻¹ s⁻¹.
